Laboratory results reported in paper PMC2821790.

Columns and labels:
[1] = biological target: T1, HMGA1(2/3) peptide (AT-hooks DBD2 and DBD3) (UniProt P17096 49-91); test: EMSA
T1 chain: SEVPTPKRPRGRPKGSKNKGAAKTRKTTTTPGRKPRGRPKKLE

Sp1 = Sp1 (UniProt P08047 1-785); test: EMSA
[2] = biological target: T2, 15N-G11,G20,G37-HMGA1(2/3) peptide (UniProt P17096 49-91); test: NMR
T2 chain: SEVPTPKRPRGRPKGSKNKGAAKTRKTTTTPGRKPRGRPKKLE

Sp1, sequence (P08047 whole entry): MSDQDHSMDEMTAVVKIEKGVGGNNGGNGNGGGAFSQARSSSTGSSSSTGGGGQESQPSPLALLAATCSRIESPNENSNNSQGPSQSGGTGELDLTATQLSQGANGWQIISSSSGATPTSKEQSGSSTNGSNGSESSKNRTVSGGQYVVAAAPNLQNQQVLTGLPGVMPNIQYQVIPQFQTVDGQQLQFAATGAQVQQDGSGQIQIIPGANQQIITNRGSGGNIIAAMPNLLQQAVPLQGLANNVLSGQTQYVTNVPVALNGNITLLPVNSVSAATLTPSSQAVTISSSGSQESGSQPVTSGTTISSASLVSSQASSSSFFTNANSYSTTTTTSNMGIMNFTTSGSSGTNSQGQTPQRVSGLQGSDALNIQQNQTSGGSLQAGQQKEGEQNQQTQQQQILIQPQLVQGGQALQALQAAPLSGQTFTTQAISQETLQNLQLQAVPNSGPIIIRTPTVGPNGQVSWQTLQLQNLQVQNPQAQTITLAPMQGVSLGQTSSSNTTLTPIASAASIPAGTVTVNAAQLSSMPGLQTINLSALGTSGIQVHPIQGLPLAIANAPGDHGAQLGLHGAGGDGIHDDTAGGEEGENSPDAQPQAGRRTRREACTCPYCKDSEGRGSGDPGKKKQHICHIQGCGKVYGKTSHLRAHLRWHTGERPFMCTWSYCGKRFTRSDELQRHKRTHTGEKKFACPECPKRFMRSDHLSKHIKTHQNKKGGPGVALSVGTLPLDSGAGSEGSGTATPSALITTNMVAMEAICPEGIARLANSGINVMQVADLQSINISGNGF

B1: NOS2 Oct EMSA probe (-65/-50) (dsDNA)
DNA 1: AGTTATGCAAAATAGC
DNA 2: GCTATTTTGCATAACT
[1]
  binding result: binds

B2: Sp1 consensus probe (dsDNA)
DNA 1: ATTCGATCGGGGCGGGGCGAGC
DNA 2: GCTCGCCCCGCCCCGATCGAAT
Sp1
  binding result: binds

B3: NOS2 Oct 16-bp DNA (NMR) (dsDNA)
DNA 1: AGTTATGCAAAATAGC
DNA 2: GCTATTTTGCATAACT
[2]
  binding result: binds
